Positions count from the first letter of the chain named.
B1: 抗Her2×抗CD3双特异性抗体MutC (bispecific antibody, human IgG1, kappa)
heavy 1: EVQLVESGGGLVQPGGSLRLSCAASGFTFNTYAMNWVRQAPGKGLEWVARIRSKYNNYATYYADSVKDRFTISRDDSKNSLYLQMNSLKTEDTAVYYCARHGNFGNSYVSWFAYWGQGTLVTVSSISSASTKGPSVFPLAPSSKSTSGGTAALGCLVKDYFPEPVTVSWNSGALTSGVHTFPAVLQSSGLYSLSSVVTVPSSSLGTQTYICNVNHKPSNTKVDKKVEPKSCDKTHTCPPCPAPELLGGPSVFLFPPKPKDTLMISRTPEVTCVVVDVSHEDPEVKFNWYVDGVEVHNAKTKPREEQYNSTYRVVSVLTVLHQDWLNGKEYKCKVSNKALPAPIEKTISKAKGQPREPQVYTLPPSREEMTKNQVSLTCLVKGFYPSDIAVEWESNGQPENNYKTTKKKLDSDGSFFLYSKLTVDKSRWQQGNVFSCSVMHEALHNHYTQKSLSLSPGK
light 1: QTVVTQEPSLTVSPGGTVTLTCGSSTGAVTTSNYANWVQEKPGQAPRGLIGGTNKRAPWTPARFSGSLLGGKAALTITGAQAEDEADYYCALWYSNLWVFGGGTKLTVLGKLVTMEIKRTVAAPSVFIFPPSDEQLKSGTASVVCLLNNFYPREAKVQWKVDNALQSGNSQESVTEQDSKDSTYSLSSTLTLSKADYEKHKVYTCEVTHQGLSSPVTKSFNRGEC
heavy 2: not shown
light 2: DIQMTQSPSSLSASVGDRVTITCRASQDVNTAVAWYQQKPGKAPKLLIYSASFLYSGVPSRFSGSRSGTDFTLTISSLQPEDFATYYCQQHYTTPPTFGQGTKLVTMEIKRTVAAPSVFICPPSDEQLKSGTASVVCLLNNFYPREAKVQWKVDNALQSGNSQESVTEQDSKDSTYSLSSTLTLSKADYEKHKVYTCEVTHQGLSSPVTKSFNRGES
B2: 抗Her2×抗CD3双特异性抗体MutC+ER (bispecific antibody)
chain 1: B1 heavy 1 with K229E
chain 2: B1 light 1 with E224R
chain 3: not shown
chain 4: B1 light 2
B3: 抗Her2×抗CD3双特异性抗体MutC-ER (bispecific antibody, human IgG1, kappa)
heavy 1: B1 heavy 1
light 1: B1 light 1
heavy 2: not shown
light 2: B1 light 2 with E216R

What follows are binders tested against 肿瘤细胞SKBR3表面的Her2抗原 (UniProt P04626 23-1255, limits assumed) (assay: cell-based or functional assay).

Binder | 对SKBR3细胞的杀伤 EC50浓度 (CTL, LDH release, PBMC effector cells) [ng/mL]
B1 | 0.045
B2 | 0.055
B3 | 0.034

Source: patent CN110357960A (GUANGZHOU AISIMAI BIOMEDICAL TECH CO LTD, dated 2019)
